Measurements from US20240409935A1, “Atg8ylation coordinates stress granule formation and mTOR inactivation in response to lysosomal damage” (priority 2023, published 2024).

Biological target: T1, GST-tagged NUFIP2 (Homo sapiens (Human)) (UniProt Q7Z417)
T1 sequence: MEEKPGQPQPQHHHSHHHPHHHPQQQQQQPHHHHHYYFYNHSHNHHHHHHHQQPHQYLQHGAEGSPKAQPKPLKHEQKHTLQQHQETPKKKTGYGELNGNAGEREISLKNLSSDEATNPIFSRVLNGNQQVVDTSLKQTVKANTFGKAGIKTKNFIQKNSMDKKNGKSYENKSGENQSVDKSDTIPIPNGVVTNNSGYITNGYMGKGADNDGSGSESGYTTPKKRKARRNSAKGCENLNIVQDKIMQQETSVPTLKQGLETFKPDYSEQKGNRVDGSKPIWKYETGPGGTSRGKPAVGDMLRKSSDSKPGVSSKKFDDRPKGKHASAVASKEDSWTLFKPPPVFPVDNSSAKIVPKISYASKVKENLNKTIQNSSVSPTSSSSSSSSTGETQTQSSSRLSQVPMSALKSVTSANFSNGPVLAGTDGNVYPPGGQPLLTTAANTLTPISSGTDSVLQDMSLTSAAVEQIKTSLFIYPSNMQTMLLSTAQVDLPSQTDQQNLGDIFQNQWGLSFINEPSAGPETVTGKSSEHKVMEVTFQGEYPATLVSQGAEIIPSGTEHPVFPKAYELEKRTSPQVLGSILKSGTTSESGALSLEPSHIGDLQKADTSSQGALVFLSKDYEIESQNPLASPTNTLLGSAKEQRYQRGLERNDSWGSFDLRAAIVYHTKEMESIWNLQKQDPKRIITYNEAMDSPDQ
Assay: GST pulldown of in vitro translated radiolabeled Myc-G3BP1 with GST-NUFIP2

Chain of Myc-tagged G3BP1 (in vitro translated and radiolabeled) (Q13283 whole entry): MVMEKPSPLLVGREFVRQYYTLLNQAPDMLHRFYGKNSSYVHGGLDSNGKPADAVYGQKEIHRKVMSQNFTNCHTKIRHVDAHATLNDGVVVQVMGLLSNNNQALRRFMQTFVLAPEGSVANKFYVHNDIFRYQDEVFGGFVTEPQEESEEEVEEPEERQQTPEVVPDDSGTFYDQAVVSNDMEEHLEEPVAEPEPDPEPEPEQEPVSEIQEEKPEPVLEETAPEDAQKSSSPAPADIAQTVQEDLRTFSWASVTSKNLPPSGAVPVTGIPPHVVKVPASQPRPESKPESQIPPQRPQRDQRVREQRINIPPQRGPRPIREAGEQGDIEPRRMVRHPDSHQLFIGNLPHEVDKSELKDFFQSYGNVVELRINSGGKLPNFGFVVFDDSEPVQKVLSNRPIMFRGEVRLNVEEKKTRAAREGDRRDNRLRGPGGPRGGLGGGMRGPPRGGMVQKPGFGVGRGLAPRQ

% binding (percent of the input bound): 60%
Substance: Myc-tagged G3BP1 (in vitro translated and radiolabeled) (from UniProt Q13283 1-466)
